Marks after values point to notes of the source that are not given here.
Columns and labels:
Th2 cells = test: Cytokine assay (ELISA of culture supernatants), CD4+ Th2 cells; assay type: cell-based, human; details: for IL-5 production, percent of cytokine production detected using the control PK16.3 mAb / IL-10 production, percent of cytokine production detected using the control PK16.3 mAb / IL-13 production, percent of cytokine production detected using the control PK16.3 mAb / IL-4 production, percent of cytokine production detected using the control PK16.3 mAb: Th2
Description: (§1) IL-4, IL-5, IL-10, IL-13, and IFNγ production levels by activated Th1 and Th2 cell were measured in culture supernatants treated with anti-TIM-1 antibodies using standard ELISA protocols. Cytokine production by Th1 or Th2 cells treated with anti-TIM-1 antibodies was compared to Th1 or Th2 cells treated with the control PK16.3 antibody. In addition, the following samples were run in parallel as internal controls: i) anti-CD3 treated Th1 or Th2 cells, where no cytokine production is expected because of the absence of co-stimulation, ii) anti-CD3/anti-CD28 stimulated Th1 or Th2 cells, expected to show detectable cytokine production, and iii) untreated Th1 or Th2 cells. CD4+ T cells were isolated as described in the Example above. Isolated CD4+ lymphocytes were then spun down and re-suspended in DMEM 5% FCS plus additives (non-essential amino acids, sodium pyruvate, mercaptoethanol, glutamine, penicillin, and streptomycin) at 10^6 cells/mL. Falcon 6-well non-tissue culture treated plates were pre-coated overnight with anti-CD3 (2 μg/mL) and anti-CD28 (10 μg/mL) (600 μL total in Dulbecco's PBS) overnight at 4° C. The plates were washed with PBS and CD4+ lymphocytes were suspended at 500,000 cells/mL in Th2 medium: DMEM+10% FCS plus supplements and IL-2 5 ng/mL, IL-4 5 ng/mL, anti-IFN gamma 5 μg/mL and cells were stimulated 4-6 days at 37° C. and 5% CO2 in the presence of 5 μg/mL of mAb recognizing the TIM-1 protein or isotype matched negative control mAb PK16.3.
(§2) In another set of experiments, CD4+ lymphocytes were suspended at 500,000 cells/mL in Th1 medium: DMEM+10% FCS plus supplements and IL-2 5 ng/mL, IL12 5 ng/mL, anti-IL-4 5 μg/mL and stimulated 4-6 days 37° C. temp and 5% CO2 in the presence of 5 μg/mL TIM-1 or isotype matched control mAb PK16.3. Cells were washed two times in DMEM and resuspended in DMEM, 10% FCS plus supplements and 2 ng/mL IL-2 (500,000 cells/mL) in the presence of 5 μg/mL TIM-1 mAb or control PK16.3 mAb and cultured (rested) for 4-6 days at 37° C. and 5% CO2. The process of activation and resting was repeated at least once more as described above with the addition of anti-CD95L (anti-FAS ligand) to prevent FAS-mediated apoptosis of cells. Falcon 96-well non-tissue culture treated plates pre-coated overnight with anti-CD3 mAb at 500 ng/mL and costimulatory molecule B7H2 (B7 homolog 2) 5 μg/mL were washed and 100 μL of TIM-1 mAb treated Th1 or Th2 (200,000 cells) added per well. After 3 days of culture, the supernatants were removed and IL-4, IL-5, IL-10, IL-13, and IFNγ […]levels were determined by ELISA (Pharmingen, San Diego, Calif. or R&D Systems, Minneapolis, Minn.).
Each experiment used purified CD4+ cells isolated from whole blood samples from two independent donors. Cytokine production is reported as the percent of cytokine production detected using the control PK16.3 mAb. The anti-TIM-1 mAb used in each experiment is specified along the bottom row.

Th1 cells = test: Cytokine assay (ELISA of culture supernatants), CD4+ Th1 cells; assay type: cell-based, human; details: 5 μg/mL mAb
Description: as §1, §2

BT549 cells = test: FACS analysis on antigen negative BT549 breast cancer cells (control); assay type: binding, human; details: normalized to isotype control (pK16)
TIM-1 antigen = target: T1, TIM-1 antigen (Homo sapiens, UniProt Q96D42, DEL158-162/L179P); test: Epitope binning (antigen binding competition, Luminex)
T1 construct: V5; His; made in house; host or cells: baculovirus expression system (pMelV5His vector / pBlueBac)
T1 sequence (Q96D42 with tags, fused parts or gaps DEL158-162/L179P): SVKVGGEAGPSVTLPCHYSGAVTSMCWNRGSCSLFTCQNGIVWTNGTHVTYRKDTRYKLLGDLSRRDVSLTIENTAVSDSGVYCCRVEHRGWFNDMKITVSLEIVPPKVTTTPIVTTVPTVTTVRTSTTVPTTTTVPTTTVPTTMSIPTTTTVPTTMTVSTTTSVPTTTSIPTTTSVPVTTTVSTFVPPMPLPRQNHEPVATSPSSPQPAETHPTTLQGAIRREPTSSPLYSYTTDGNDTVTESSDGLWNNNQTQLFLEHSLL
Description: Certain antibodies, described herein were “binned” in accordance with the protocol described in U.S. Patent Application Publication No. 20030157730, published on Aug. 21, 2003, entitled “Antibody Categorization Based on Binding Characteristics.”
MxhIgG conjugated beads were prepared for coupling to primary antibody. The volume of supernatant needed was calculated using the following formula: (n+10)×50 μL (where n=total number of samples on plate). Where the concentration was known, 0.5 μg/mL was used. Bead stock was gently vortexed, then diluted in supernatant to a concentration of 2500 of each bead per well or 0.5×10^5/mL and incubated on a shaker in the dark at room temperature overnight, or 2 hours if at a known concentration of 0.5 μg/mL. Following aspiration, 50 μL of each bead was added to each well of a filter plate, then washed once by adding 100 μL/well wash buffer and aspirating. Antigen and controls were added to the filter plate 50 μL/well then covered and allowed to incubate in the dark for 1 hour on shaker. Following a wash step, a secondary unknown antibody was added at 50 μL/well using the same dilution (or concentration if known) as used for the primary antibody. The plates were then incubated in the dark for 2 hours at room temperature on shaker followed by a wash step. Next, 50 μL/well biotinylated mxhIgG diluted 1:500 was added and allowed to incubate in the dark for 1 hour on shaker at room temperature. Following a wash step, 50 μL/well Streptavidin-PE was added at 1:1000 and allowed to incubate in the dark for 15 minutes on shaker at room temperature. Following a wash step, each well was resuspended in 80 μL blocking buffer and read using a Luminex system.

[1] = target: T2, TIM-1 protein on human CD4+ Th2 cells (Homo sapiens, UniProt Q96D42); test: FACS analysis of expression of TIM-1 protein on human CD4+ Th2 cells; assay type: binding
T2 construct: a major fraction of polarized human Th2 and Th1 cells do express TIM-1; endogenous in cells; host or cells: primary human CD4+ T cells from blood
T2 sequence (Q96D42 21-364): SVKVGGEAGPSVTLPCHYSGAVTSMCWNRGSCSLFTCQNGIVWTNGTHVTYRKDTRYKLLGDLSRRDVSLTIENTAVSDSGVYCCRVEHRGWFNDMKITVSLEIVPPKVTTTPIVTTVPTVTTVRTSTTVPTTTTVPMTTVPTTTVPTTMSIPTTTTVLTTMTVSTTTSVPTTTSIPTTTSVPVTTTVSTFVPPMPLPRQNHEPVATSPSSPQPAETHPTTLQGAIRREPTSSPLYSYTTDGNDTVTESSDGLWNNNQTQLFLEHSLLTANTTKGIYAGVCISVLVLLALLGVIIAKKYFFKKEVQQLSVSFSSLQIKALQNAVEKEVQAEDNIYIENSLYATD
Description: Mononuclear cells were isolated from human blood diluted 1:1 in PBS, by spinning over Ficoll for 20 minutes. The mononuclear cells were washed twice at 1000 rpm with PBS-Mg and Ca and re-suspended in Miltenyi buffer (Miltenyi Biotec Inc., Auburn, Calif.); PBS, 0.5% BSA, 5 mM EDTA at approximately 10^8 cells/mL. 20 μL of CD4 Miltenyi beads were added per 107 cells and incubated for 15 minutes on ice. Cells were washed with a 10-fold excess volume of Miltenyi buffer. A positive selection column (type VS+) (Miltenyi Biotec Inc., Auburn, Calif.) was washed with 3 mL of Miltenyi buffer. The pelleted cells were re-suspended at 10^8 cells per mL of Miltenyi buffer and applied to the washed VS column. The column was then washed three times with 3 mL of Miltenyi buffer. Following this, the VS column was removed from the magnetic field and CD4+ cells were eluted from the column with 5 mL of Miltenyi buffer. […]
FACS analysis was performed to determine the expression of TIM-1 protein as detected with five anti-TIM-1 monoclonal antibodies (2.59.2, 1.29, 2.70.2, 2.56.2, 2.45.1) on human and mouse resting CD4+ T cells, as well as human activated and human polarized CD4+ T cells.
Data is reported as the geometric mean of the fluorescence intensity.

[2] = 5 μg/mL mAb, compared to control PK16.3 mAb
[3] = TH2, Donor 12 + 17, control PK16.3 mAb, 5 μg/mL mAb
[4] = TH1, Donor 12 + 17, control PK16.3 mAb

- BIN (TIM-1 antigen; Table 8): 1
- Bin (TIM-1 antigen; Table 9): 1
- Geometric mean of fluorescence intensity ([1]; Polarized Human CD4+ Th2 Cells): 22.3
- Geometric mean of fluorescence intensity ([1]; Resting Human CD4+ T cells): 4.7
B1: mAb 1.29: fully human IgG2 kappa anti-TIM-1 monoclonal antibody; heavy chain SEQ ID NO: 2, light chain SEQ ID NO: 4 (antibody, listed as Homo Sapiens, V domains shown)
VH: QVQLQESGPGLVKPSETLSLTCTVSGGSVSSGGYYWSWIRQPPGKGLEWIGFIYYTGSTNYNPSLKSRVSISVDTSKNQFSLKLSSVTAADAAVYYCARDYDWSFHFDYWGQGTLVTVSSA
VL: DIQMTQSPSSLSASIGDRVTITCRASQGIRNDLGWYQQKPGKAPKRLIYAASSLQSGVPSRFSGSGSGTEFTLTISSLQPEDFATYYCLQHNSYPLTFGGGTKVEIKR
- IL-5 release from Th2 cells (Th2 cells; [2]): significantly inhibited
- IL-10 release from Th2 cells (Th2 cells; [2]): significantly inhibited
- IL-13 release from Th2 cells (Th2 cells; [2]): significantly inhibited
- IL-4 Percentage of Control Antibody (Th2 cells; [3]): 112.54 Percentage of Control Antibody
- IL-5 Percentage of Control Antibody (Th2 cells; [3]): 80.26 Percentage of Control Antibody
- IL-10 Percentage of Control Antibody (Th2 cells; [3]): 44.45 * Percentage of Control Antibody
- IL-13 Percentage of Control Antibody (Th2 cells; [3]): 48.91 ** Percentage of Control Antibody
- INF γ Percentage of Control Antibody (Th2 cells; [3]): 112.54 Percentage of Control Antibody
- IL-5 production, percent of cytokine production detected using the control PK16.3 mAb (Th2 cells; Donor ID 12): 2%
- IL-10 production, percent of cytokine production detected using the control PK16.3 mAb (Th2 cells; Donor ID 12): 109%
- IL-13 production, percent of cytokine production detected using the control PK16.3 mAb (Th2 cells; Donor ID 12): 91%
- IL-4 production, percent of cytokine production detected using the control PK16.3 mAb (Th2 cells; Donor ID 12 + 14): 626%
- IL-5 production, percent of cytokine production detected using the control PK16.3 mAb (Th2 cells; Donor ID 12 + 14): 5%
- IL-10 production, percent of cytokine production detected using the control PK16.3 mAb (Th2 cells; Donor ID 12 + 14): 83%
- IL-4 production, percent of cytokine production detected using the control PK16.3 mAb (Th2 cells; Donor ID 13 + 14): 130%
- IL-5 production, percent of cytokine production detected using the control PK16.3 mAb (Th2 cells; Donor ID 13 + 14): 122%
- IL-10 production, percent of cytokine production detected using the control PK16.3 mAb (Th2 cells; Donor ID 13 + 14): 19%
- IL-13 production, percent of cytokine production detected using the control PK16.3 mAb (Th2 cells; Donor ID 13 + 14): 17%
- IL-5 production, percent of cytokine production detected using the control PK16.3 mAb (Th2 cells; Donor ID 14): 67%
- IL-10 production, percent of cytokine production detected using the control PK16.3 mAb (Th2 cells; Donor ID 14): 45%
- IL-13 production, percent of cytokine production detected using the control PK16.3 mAb (Th2 cells; Donor ID 14): 100%
- block of Th2 cytokines across donor groups (Th2 cells; multiple experiments with different donors): reproducibly block one or more of the Th2 cytokines
- IL-10 release from Th1 cells (Th1 cells; compared to control PK16.3 mAb): significantly inhibited
- IL-13 release from Th1 cells (Th1 cells; compared to control PK16.3 mAb): significantly inhibited
- IL-4 Percentage of Control Antibody (Th1 cells; [4]): 81.05 Percentage of Control Antibody
- IL-5 Percentage of Control Antibody (Th1 cells; [4]): 94.63 Percentage of Control Antibody
- IL-10 Percentage of Control Antibody (Th1 cells; [4]): 60.77 ** Percentage of Control Antibody
- IL-13 Percentage of Control Antibody (Th1 cells; [4]): 73.95 *** Percentage of Control Antibody
- INF γ Percentage of Control Antibody (Th1 cells; [4]): 93.51 Percentage of Control Antibody
- Geo Mean Ratio (relative to negative control) BT549 (BT549 cells): 1.2
